Experimental data taken from patent US20130183315A1 (GLENMARK PHARMACEUTICALS S A, published 2013).

How the values were obtained:
[1] = biological target: T1, recombinant human OX40-his protein (human, UniProt P43489 29-214); assay: SPR, antibody captured on protein A, OX40-his as analyte, duplicates; lower of the two duplicate measurements
T1 construct: Secretion driven by the native signal peptide of human TNFRSF4; also called recombinant histidine tagged human OX40 receptor extracellular domain; recombinant monovalent human OX40 receptor extracellular domain
T1 sequence: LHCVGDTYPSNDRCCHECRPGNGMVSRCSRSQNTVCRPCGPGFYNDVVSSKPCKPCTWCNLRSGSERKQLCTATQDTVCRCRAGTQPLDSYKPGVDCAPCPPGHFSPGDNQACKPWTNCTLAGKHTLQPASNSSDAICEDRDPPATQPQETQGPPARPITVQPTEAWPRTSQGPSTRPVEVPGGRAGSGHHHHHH
Method: (§1) Kinetic binding affinity constants (KD) were measured on protein-A captured antibody using recombinant histidine tagged human OX40 receptor extracellular domain as described in Example 1 as analyte. Measurements were conducted on a BIAcore 2000 (GE Healthcare—BIAcore, Uppsala, Sweden) at room temperature, and analyzed with the BiaEvaluation software (BIAcore; v4.1).
(§2) 10 μl of this diluted stock were subsequently injected on the flow-path 2 of the protein-A CMS chip (30 μl/min) to reach 200-250 RUs. Following this capture step, the recombinant histidine tagged human OX40 receptor extracellular domain was injected at different concentrations (50 nM to 0.4 μM) on the flow-path 1 and 2 (flow-path 1 being used as reference) at a 30 μl/min flow rate. After each binding event, surface was regenerated with glycine buffer pH 1.5 injected for 1 min (10 μl/min)
Measurements were performed in duplicates with the captured chimeric 1D4 anti-human OX40 antibody immobilized onto the protein-A sensor chip and the recombinant histidine tagged human OX40 receptor extracellular domain as analyte.

[2] = biological target: T2, recombinant human OX40-Fc protein (human, UniProt P43489 29-214); assay: blocking ELISA on coated human OX40-Fc; blocked ligand: biotinylated recombinant human OX40L, streptavidin-HRP detection
T2 construct: also called human TNFRSF4 extracellular domain-Fc fusion protein; HHHH; not shown: Fc region of a human IgG1, EU positions 223-451 as printed
Method: In order to determine if the generated anti-OX40 antibodies can block the binding of OX40L to the OX40 receptor, a blocking ELISA was developed. Ninety-six well-microtiter plates (Costar, USA; distributor VWR AG, Nyon, Switzerland) were coated with 100 μl of recombinant human OX40-Fc (see Example 1) at 2 μg/ml in PBS. Plates were incubated overnight at 4° C. and were then blocked with PBS 2% BSA at RT for one hour. The blocking solution was removed and the hybridoma supernatants or purified antibodies were added to the plate. Five minutes later, 50 μl of biotinylated-recombinant human OX40L at 0.04 mg/ml was added to each well. Plates were incubated at RT for 60 minutes, then washed nine times with PBS 0.01% Tween-20 and HRP-streptavidin (Sigma-Aldrich Chemie GmbH, Buchs, Switzerland) was added at a dilution of 1:2000. Plates were incubated for 30 minutes at RT, washed 9 times with PBS 0.01% Tween-20 and the TMB substrate (Bio-rad Laboratories AG, Reinach, Switzerland) was added to the plates and the reaction stopped after 6 minutes by adding H₂SO₄. Absorbance was then read at 450 nm by a microplate reader (Biotek, USA; distributor: WITTEC AG, Littau, Switzerland).

[3] = biological target: T1, recombinant human OX40-his protein; assay: SPR, antibody captured on protein A, OX40-his as analyte
Method: as §1
(§3) A CMS research grade sensor chip (GE Healthcare Europe GmbH, Glattbrugg, Switzerland; BR-1000-14) was activated by injecting 35 μl of a 1:1 N-hydroxysulfosuccinimide (NHS)/1-Ethyl-3-[3-dimethylaminopropyl]carbodiimide Hydrochloride (EDC) solution (v/v; 5 μl/min flow-rate; on flow paths 1 and 2). Protein-A (ref. P7837; Sigma-Aldrich Chemie GmbH, Buchs, Switzerland) was diluted to a final concentration of 50 μg/ml in acetate buffer pH 4.5 (GE, BR-1003-50; one pH unit below pI) and subsequently immobilized on the previously activated CMS sensor chip by injecting 35 μl on both flow path 1 and 2 (5 μl/min); this corresponded to approximately 1500 response units (RUs). The protein-A-CMS sensor chip was then deactivated by injecting 35 μl of ethanolamine solution (5 μl/min). Finally, two injections of 10 μl of glycine solution (GE, ref BR-1003-54; 10 mM; pH 1.5) were performed to release non-crosslinked protein-A molecules.
as §2

[4] = biological target: T1, recombinant human OX40-his protein; assay: SPR (BIAcore): antibody captured on protein A chip, human OX40-his as analyte; analyte concentration not given
Method: as §1, §3, §2

[5] = biological target: T1, recombinant human OX40-his protein; assay: SPR (BIAcore): antibody captured on protein A chip, human OX40-his as analyte; traces aligned at 0 s, falling phase only
Method: as §1
as §3, with “molecules. […]” for “molecules.”

[6] = biological target: T3, chimeric RRHH OX40 protein (Fc fusion) (human-rat chimera; human); assay: ELISA on coated OX40 Fc fusion (2 µg/mL), anti-human F(ab')2-HRP detection
T3 chain (part 1 of 2): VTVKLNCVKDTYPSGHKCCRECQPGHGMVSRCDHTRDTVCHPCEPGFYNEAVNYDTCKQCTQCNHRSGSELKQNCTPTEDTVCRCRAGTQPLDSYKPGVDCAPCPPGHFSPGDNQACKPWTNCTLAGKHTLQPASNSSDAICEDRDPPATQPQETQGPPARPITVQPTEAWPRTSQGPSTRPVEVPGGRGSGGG
T3 chain (part 2 of 2): SAHHHHHH
Method: (§4) Rat and human-rat OX40 proteins were formatted as Fc fusions proteins according to the method described in Example 1. For the ELISA, OX40 proteins were coated at 2 μg/mL, in PBS, overnight at 4° C. on high binding 96-well plates (Coastar). The plates were blocked with PBS 2% Bovine Serum Albumin (BSA) before incubation with the VH6/VL9 antibody or isotype control antibody. The plates were then washed and incubated with goat-anti human Ig F(ab′)2 fragment specific-HRP (Jackson ImmunoResearch Europe Ltd, Newmarket, UK). After washing, the plates were incubated with TMB substrate (Bio-Rad Laboratories AG, Reinach, Switzerland) to reveal antibody binding. The reaction was stopped by adding 2M H₂SO₄ and the optical density was read at 450 nm (OD 450 nm) on a Synergy HT2 spectrophotometer (Biotek, USA; distributor: WITTEC AG, Littau, Switzerland).
(§5) A binding ELISA was performed to test the reactivity of the VH6/VL9 antibody on human OX40 extracellular region (abbreviated HHHH with SEQ ID NO: 11), rat OX40 extracellular region (abbreviated RRRR with SEQ ID NO: 52), and on four human-rat chimeric proteins: RHRR (SEQ ID NO: 53), HRRR (SEQ ID NO: 54), HHRR (SEQ ID NO: 55), and RRHH (SEQ ID NO: 56).

[7] = biological target: T4, rat OX40 extracellular region Fc fusion protein (rat; human, UniProt P15725 20-210); assay: as above
T4 construct: also called RRRR; rat OX40 protein
Method: as §4, §5

[8] = biological target: T5, human OX40 expressed on the surface of human activated lymphocytes (human, UniProt P43489 29-277); assay: cell-based or functional assay
T5 sequence: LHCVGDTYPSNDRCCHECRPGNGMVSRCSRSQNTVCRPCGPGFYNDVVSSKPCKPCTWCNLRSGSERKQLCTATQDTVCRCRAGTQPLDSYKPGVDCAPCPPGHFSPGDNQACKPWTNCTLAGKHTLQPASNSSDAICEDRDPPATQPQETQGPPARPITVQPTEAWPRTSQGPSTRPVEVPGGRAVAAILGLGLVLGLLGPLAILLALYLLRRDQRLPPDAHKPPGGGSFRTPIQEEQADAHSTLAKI

B1: chimeric 1D4 antibody (antibody, human IgG1, kappa, V domains shown)
VH: QVTLKESGPGILQPSQTLSLTCSFSGFSLSTSGMGVGWIRQPSGKGLEWLAHIWWDDDKYYNTALKSGLTISKDTSKNQVFLKIASVDTTDTATYYCARIDWDGFAYWGQGTLVTVSS
VL: QIVLTQSPAILSASPGEKVTMTCRASSSVSYMHWYQQKPGSSPKPWIYATSNLASGVPARFSGSGSGTSYSLTINRVEAEDAATYYCQQWSSNPWTFGGGTKLEIKR
notes: Biotinylated for the staining of cynomolgus cells; also called 1D4 chimera; 1D4 chimeric antibody
**Q.** With B1 as the binder, how does the Kd [1] read?
**A.** 91 to 116 nM

**Q.** What about the “IC50 (read off the curve)” value [2] of the same binder?
**A.** ~0.3 µg/mL

**Q.** And the Kd [3]?
**A.** 91 nM

**Q.** And the koff [3]?
**A.** 0.00308 s⁻¹

**Q.** What about the kon [3] of the same binder?
**A.** 34000 M⁻¹ s⁻¹

B2: VH5/VL5 (antibody, human IgG1, kappa)
heavy: not shown
light: EIVLTQSPATLSLSPGERATLSCRASSSVSYYMAWYQQKPGQAPRPWIYATSNRATGIPARFSGSGSGTDYTLTISSLEPEDFAVYYCQQWSSNPWTFGQGTKVEIKRTVAAPSVFIFPPSDEQLKSGTASVVCLLNNFYPREAKVQWKVDNALQSGNSQESVTEQDSKDSTYSLSSTLTLSKADYEKHKVYACEVTHQGLSSPVTKSFNRGEC
notes: Humanized, IGHG1, kappa
**Q.** Does B2 bind [4]?
**A.** binds

B3: VH5/VL6 (antibody, human IgG1, kappa)
heavy: not shown
light: QIVLTQSPATLSLSPGERATLSCRASSSVSYYMAWYQQKPGQAPRPWIYATSNRATGIPARFSGSGSGTDYTLTISSLEPEDFAVYYCQQWSSNPWTFGQGTKVEIKRTVAAPSVFIFPPSDEQLKSGTASVVCLLNNFYPREAKVQWKVDNALQSGNSQESVTEQDSKDSTYSLSSTLTLSKADYEKHKVYACEVTHQGLSSPVTKSFNRGEC
notes: Humanized, IGHG1, kappa
**Q.** Does B3 bind [4]?
**A.** binds

B4: VH4/VL9 (antibody, human IgG1, kappa, V domains shown)
VH: QVTLKESGPALVKPTQTLTLTCSFSGFSLSTSGMGVSWIRQPPGKALEWIAHIWWDDDKYYSTSLKTRLTISKDTSKNQVVLTMTNMDPVDTATYYCARIDWDGFAYWGQGTLVTVSS
VL: EIVLTQSPATLSLSPGERATLSCRASSSVSYMHWYQQKPGQAPRPWIYATSNRATGIPARFSGSGSGTDYTLTISSLEPEDFAVYYCQQWSSNPWTFGQGTKVEIKR
notes: Humanized, IGHG1, kappa
**Q.** Does B4 bind [5]?
**A.** binds

B5: VH5/VL9 (antibody, human IgG1, kappa, V domains shown)
VH: QVTLKESGPALVKPTQTLTLTCSFSGFSLSTSGMGVSWIRQPPGKALEWIAHIWWDDDKYYNTALKTRLTISKDTSKNQVVLTMTNMDPVDTATYYCARIDWDGFAYWGQGTLVTVSS
VL: EIVLTQSPATLSLSPGERATLSCRASSSVSYMHWYQQKPGQAPRPWIYATSNRATGIPARFSGSGSGTDYTLTISSLEPEDFAVYYCQQWSSNPWTFGQGTKVEIKR
notes: Humanized, IGHG1, kappa
**Q.** Does B5 bind [5]?
**A.** binds

B6: VH6/VL9 antibody (antibody, human IgG1, kappa, V domains shown)
VH: QVTLKESGPALVKPTQTLTLTCSFSGFSLSTSGMGVGWIRQPPGKALEWIAHIWWDDDKYYNTALKTRLTISKDTSKNQVVLTMTNMDPVDTATYYCARIDWDGFAYWGQGTLVTVSS
VL: EIVLTQSPATLSLSPGERATLSCRASSSVSYMHWYQQKPGQAPRPWIYATSNRATGIPARFSGSGSGTDYTLTISSLEPEDFAVYYCQQWSSNPWTFGQGTKVEIKR
notes: Humanized, IGHG1, kappa; also called humanized anti-OX40 antibody VH6/VL9; VH6/VL9 IGHG1 format
**Q.** Does B6 bind [6]?
**A.** no binding (tested: not printed)

**Q.** Does B6 bind [7]?
**A.** no binding (tested: not printed)

**Q.** And the Kd [3]?
**A.** 101 nM

**Q.** What about the koff [3] of the same binder?
**A.** 0.00356 s⁻¹

**Q.** What about the kon [3] of the same binder?
**A.** 35400 M⁻¹ s⁻¹

**Q.** What about the “inhibition of mixed lymphocyte reaction (3H thymidine incorporation), EC50” value [8] of the same binder?
**A.** ~0.1 µg/mL
